Measured values published in US20040266665A1.

Columns and labels:
[1] = biological target: human thyroid stimulating hormone receptor (TSHR) (human) (UniProt P16473); assay: cell-based or functional assay
[2] = biological target: human thyroid stimulating hormone receptor (TSHR) (human) (UniProt P16473); assay: receptor binding affinity; assay and reference not described (reference presumably wild type hTSH)

Row | Vmax of cyclic AMP production in CHO-JP09 cells, compared to wild type TSH [1] [fold] | in vitro activity (cyclic AMP production in CHO-JP09 cells) over that of the α4K/wild type β heterodimer [1] [fold] | potency in stimulation of cyclic AMP production in CHO-JP09 cells, compared to wild type TSH [1] [fold] | fold increase in binding affinity [2] [fold] | hormone potency [1] [fold] | Substance
1 | 1.5 | 3 to 4 | 200 |  |  | mutant TSH heterodimer comprising the α4K subunit (αQ13K+αE14K+αP16K+αQ20K) and a fusion protein of the TSH β subunit and the CTEP of hCG (from UniProt P0DN86 134-165) (ligand)
2 |  |  |  | < 50000 | < 1300 | α4K/β3R hTSH analog (heterodimer of α4K mutant α subunit and β3R mutant TSH β subunit) (from UniProt P01215 25-116; P01222 21-132) (ligand)
